The values that follow come from the supplement of paper PMC5998384.

For data set [1], the system named is HeLa Kyoto. Briefly: solubility in G1/S (NP-40 vs SDS abundance) (log2 ratio); higher = more soluble. Conditions: cell cycle stage: G1/S.
Data set [2] has as its system HeLa Kyoto. Nature of the data set: solubility change mitosis vs G1/S (difference of NP-40 vs SDS log2 ratios) (log2 ratio difference); higher = more soluble in mitosis.
Data set [3] concerns HeLa Kyoto. Briefly: thermal stability score vs G1/S (z-score of summed log2 fold changes over temperatures); higher = more thermally stable than in G1/S.
The test system of data set [4] is HeLa Kyoto. Nature of the data set: melting temperature (median over replicates), in situ; higher = more thermally stable.
Where [5] appears, read: cell cycle stage: early G1 (4.5 h after nocodazole release).
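Throughout, for melting temperature (median over replicates), in situ: HeLa Kyoto cells synchronized by double thymidine or nocodazole block, proteins quantified by TMT10plex mass spectrometry, three independent biological replicates.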
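Throughout, for solubility change mitosis vs G1/S (difference of NP-40 vs SDS log2 ratios): synchronized HeLa Kyoto cells (double thymidine block for G1/S, nocodazole release for mitosis), protein amounts in NP-40 versus SDS lysates quantified by mass spectrometry, three biological replicates.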
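Throughout, for solubility in G1/S (NP-40 vs SDS abundance): HeLa Kyoto cells arrested at G1/S by double thymidine block, proteins quantified by TMT10plex mass spectrometry in mild NP-40 versus SDS extracts, three biological replicates.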
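Throughout, for thermal stability score vs G1/S (z-score of summed log2 fold changes over temperatures): synchronized HeLa Kyoto cells, proteins quantified by TMT10plex mass spectrometry, three biological replicates, mitosis taken 0.5 h after nocodazole release, G1/S directly after double thymidine block.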

Chain of HDGF (chain, as listed by the source): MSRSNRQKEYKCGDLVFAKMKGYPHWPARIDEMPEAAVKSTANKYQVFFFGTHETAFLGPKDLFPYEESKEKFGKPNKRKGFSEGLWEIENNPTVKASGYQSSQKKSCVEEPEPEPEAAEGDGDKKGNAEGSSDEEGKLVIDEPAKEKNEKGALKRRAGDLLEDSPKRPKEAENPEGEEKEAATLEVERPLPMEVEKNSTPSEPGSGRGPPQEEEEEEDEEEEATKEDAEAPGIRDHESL
Chain of FXR1 (chain, as listed by the source): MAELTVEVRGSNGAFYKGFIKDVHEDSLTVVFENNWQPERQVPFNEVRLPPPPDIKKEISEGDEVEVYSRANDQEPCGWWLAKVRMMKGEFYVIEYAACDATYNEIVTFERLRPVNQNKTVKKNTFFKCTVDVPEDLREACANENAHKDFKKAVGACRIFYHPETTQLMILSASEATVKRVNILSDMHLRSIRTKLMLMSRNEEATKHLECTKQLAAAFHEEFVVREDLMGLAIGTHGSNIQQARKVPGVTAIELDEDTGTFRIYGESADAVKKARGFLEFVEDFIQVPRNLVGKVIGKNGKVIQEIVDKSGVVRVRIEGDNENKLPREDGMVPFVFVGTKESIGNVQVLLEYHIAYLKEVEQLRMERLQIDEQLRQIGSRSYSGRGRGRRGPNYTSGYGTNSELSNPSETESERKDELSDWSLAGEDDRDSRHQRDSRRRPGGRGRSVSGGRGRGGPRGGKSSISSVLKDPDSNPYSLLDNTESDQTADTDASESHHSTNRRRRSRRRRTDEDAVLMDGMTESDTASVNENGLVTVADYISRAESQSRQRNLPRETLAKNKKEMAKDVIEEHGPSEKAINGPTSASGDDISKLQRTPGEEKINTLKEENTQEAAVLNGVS

Turning to EPPK1, the “solubility in G1/S (log2)” value in data set [1] was -2.27. The “solubility change mitosis (log2)” value in data set [2] was 0.311. Besides, the thermal stability score in data set [3] (setting [5]) is -7.26; in data set [3] (cell cycle stage: mitosis) it was -8.82. The substance also displayed a melting temperature in data set [4] (cell cycle stage: mitosis) of 51.3 °C.

Turning to ERH, the “solubility in G1/S (log2)” value in data set [1] is -2.12. The “solubility change mitosis (log2)” value in data set [2] stood at 0.912. Moreover, the thermal stability score in data set [3] (setting [5]) was -4.51; in data set [3] (cell cycle stage: mitosis), -3.17. Moreover, the results for the melting temperature in data set [4] (cell cycle stage: G1/S) and in data set [4] (cell cycle stage: mitosis) were 52.5 °C and 51.6 °C, respectively.

With FASN, the “solubility in G1/S (log2)” value in data set [1] is -0.0375. Moreover, the “solubility change mitosis (log2)” value in data set [2] was -0.203. Further, the thermal stability score in data set [3] (setting [5]) is -0.721; in data set [3] (cell cycle stage: mitosis), 0.266. The melting temperature in data set [4] (cell cycle stage: G1/S) amounted to 52.1 °C; in data set [4] (cell cycle stage: mitosis), 51.8 °C.

As for FLNA, the “solubility in G1/S (log2)” value in data set [1] is -0.000309. Besides, in data set [2], the “solubility change mitosis (log2)” value was -0.105. Further, the figures for the thermal stability score in data set [3] (setting [5]) and in data set [3] (cell cycle stage: mitosis) were -0.0595 and 2.86, respectively. Moreover, the melting temperature in data set [4] (cell cycle stage: G1/S) came out at 50.2 °C; in data set [4] (cell cycle stage: mitosis), 50.3 °C.

In the case of FRYL, the “solubility in G1/S (log2)” value in data set [1] was -0.239. Also, in data set [2], the “solubility change mitosis (log2)” value was -0.116. The thermal stability score is -0.342 in data set [3] (setting [5]) and 0.441 in data set [3] (cell cycle stage: mitosis). The melting temperature worked out at 49.7 °C in data set [4] (cell cycle stage: G1/S) and 52.1 °C in data set [4] (cell cycle stage: mitosis).

In the case of FXR1, the “solubility in G1/S (log2)” value in data set [1] was -0.859. In data set [2], the “solubility change mitosis (log2)” value was 0.215. For the same substance, the thermal stability score is -2.47 in data set [3] (setting [5]) and 2.23 in data set [3] (cell cycle stage: mitosis). Besides, the melting temperature in data set [4] (cell cycle stage: G1/S) stood at 50.3 °C; in data set [4] (cell cycle stage: mitosis) it was 50.8 °C.

Consider GCHFR, for which the “solubility in G1/S (log2)” value in data set [1] was found to be 0.27. Besides, the “solubility change mitosis (log2)” value in data set [2] turned out to be 0.498. The thermal stability score in data set [3] (setting [5]) was -1.12; in data set [3] (cell cycle stage: mitosis), -0.945. The figures for the melting temperature in data set [4] (cell cycle stage: G1/S) and in data set [4] (cell cycle stage: mitosis) were 55 °C and 59.7 °C, respectively.

For the substance GOLGA4, the “solubility in G1/S (log2)” value in data set [1] came out at 0.348. Besides, in data set [2], the “solubility change mitosis (log2)” value was -0.133. Further, the thermal stability score in data set [3] (setting [5]) is 0.946; in data set [3] (cell cycle stage: mitosis), 2.53. For the same substance, the melting temperature was found to be 48.5 °C in data set [4] (cell cycle stage: G1/S) and 49.2 °C in data set [4] (cell cycle stage: mitosis).

In the case of HDGF, in data set [1], the “solubility in G1/S (log2)” value amounted to 0.426. Also, the “solubility change mitosis (log2)” value in data set [2] is 0.219. Also, the thermal stability score in data set [3] (setting [5]) was -2.27; in data set [3] (cell cycle stage: mitosis), -3.47. Also, the melting temperature worked out at 53.5 °C in data set [4] (cell cycle stage: G1/S) and 53.2 °C in data set [4] (cell cycle stage: mitosis).

Consider HERC2, for which the “solubility in G1/S (log2)” value in data set [1] was -0.443. For the same substance, the “solubility change mitosis (log2)” value in data set [2] was found to be 0.00915. Besides, the thermal stability score in data set [3] (setting [5]) came out at 0.138; in data set [3] (cell cycle stage: mitosis), 0.405. In addition, the melting temperature worked out at 51.3 °C in data set [4] (cell cycle stage: G1/S) and 50 °C in data set [4] (cell cycle stage: mitosis).

Regarding ILF2, the “solubility in G1/S (log2)” value in data set [1] is -0.141. The “solubility change mitosis (log2)” value in data set [2] stood at 0.0511. Further, the thermal stability score in data set [3] (setting [5]) is -1.61; in data set [3] (cell cycle stage: mitosis), -1.98. The melting temperature in data set [4] (cell cycle stage: G1/S) was 54.6 °C; in data set [4] (cell cycle stage: mitosis), 53.3 °C.

Take IQGAP3: the “solubility in G1/S (log2)” value in data set [1] was -0.395. In addition, the “solubility change mitosis (log2)” value in data set [2] worked out at 0.191. Besides, the thermal stability score in data set [3] (setting [5]) is 0.51; in data set [3] (cell cycle stage: mitosis), 1.12. Besides, the melting temperature in data set [4] (cell cycle stage: G1/S) was found to be 47.8 °C; in data set [4] (cell cycle stage: mitosis), 48.1 °C.
